# Ends that are not written are not given here.
# Target: T1, CRF2R
# T1 sequence (Q13324 whole entry, species assumed, looked up): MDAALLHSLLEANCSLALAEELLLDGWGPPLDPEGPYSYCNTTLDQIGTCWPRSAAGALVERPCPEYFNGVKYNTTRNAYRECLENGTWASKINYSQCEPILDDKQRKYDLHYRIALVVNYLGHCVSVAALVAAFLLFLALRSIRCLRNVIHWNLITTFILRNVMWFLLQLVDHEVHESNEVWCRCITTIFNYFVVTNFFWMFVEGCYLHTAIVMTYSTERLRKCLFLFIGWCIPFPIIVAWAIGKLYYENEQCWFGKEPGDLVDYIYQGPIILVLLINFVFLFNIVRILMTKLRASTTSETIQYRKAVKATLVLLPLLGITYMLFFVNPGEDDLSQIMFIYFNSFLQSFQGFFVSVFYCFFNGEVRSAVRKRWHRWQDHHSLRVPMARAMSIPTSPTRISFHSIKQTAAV
# Test: cell-based or functional assay
# Throughout, for CRF1R Emax %: reference of the scale not given here.
# Throughout, for CRF2R Emax %: reference of the scale not given here.
Binder,CRF2R EC50,CRF2R Emax %
ZGPPISIDVPYWLLRKVIEIEKQEKEKQQAANNARLLDTI (C-terminal amide) [SEQ ID NO 372],14.2 nM,100%
ZGPPISIDVPYHLLRKVIEIEKQEKEKQQAANNARLLARI (C-terminal amide) [SEQ ID NO 377],19.2 nM,83%
ZGPPISIDVPIYLLRKVIEIEKQEKEKQQAANNARLLARI (C-terminal amide) [SEQ ID NO 379],70.5 nM,94%
ZGPPISIDVPYQLLRKVIEIEKQEKEKQQAANNARLLARI (C-terminal amide) [SEQ ID NO 375],11.5 nM,100%
ZGPPISIDVPYWLLRKVIEIEKQEKEKQQAANNARLLARI (C-terminal amide) [SEQ ID NO 373],11.5 nM,100%
ZGPPISIDVPYQLLRKVIEIEKQEKEKQQAANNARLLDTI (C-terminal amide) [SEQ ID NO 374],15.8 nM,91%
ZGPPISIDVPYHLLRKVIEIEKQEKEKQQAANNARLLDTI (C-terminal amide) [SEQ ID NO 376],52.5 nM,100%
ZGPPISIDVPFQLLRKVIEIEKQEKEKQQAANNARLLDTI (C-terminal amide) [SEQ ID NO 382],39.5 nM,100%
ZGPPISIDVPFQLLRKVIEIEKQEKEKQQAANNARLLARI (C-terminal amide) [SEQ ID NO 383],9.31 nM,96%
ZGPPISIDVPLQLLRKVIEIEKQEKEKQQAANNARLLDTI (C-terminal amide) [SEQ ID NO 380],19 nM,100%
ZGPPISIDVPLQLLRKVIEIEKQEKEKQQAANNARLLARI (C-terminal amide) [SEQ ID NO 381],12.7 nM,99%
ZGPPISIDVPYYLLRKVIEIEKQEKEKQQAANNARLLARI (C-terminal amide) [SEQ ID NO 378],14.9 nM,100%
DNPSLSIDVPLLLLRTLLELEKTQSQRERAEQNARIFARV-NH2 [SEQ ID NO 384],7.1 nM,97.3%

# Target: CRF1R
# Test: cell-based or functional assay
Binder,CRF1R EC50,CRF1R Emax %
ZGPPISIDVPYWLLRKVIEIEKQEKEKQQAANNARLLDTI (C-terminal amide) [SEQ ID NO 372],1000 nM,13%
ZGPPISIDVPYHLLRKVIEIEKQEKEKQQAANNARLLARI (C-terminal amide) [SEQ ID NO 377],1000 nM,25%
ZGPPISIDVPIYLLRKVIEIEKQEKEKQQAANNARLLARI (C-terminal amide) [SEQ ID NO 379],1000 nM,8%
ZGPPISIDVPYQLLRKVIEIEKQEKEKQQAANNARLLARI (C-terminal amide) [SEQ ID NO 375],1000 nM,22%
ZGPPISIDVPYWLLRKVIEIEKQEKEKQQAANNARLLARI (C-terminal amide) [SEQ ID NO 373],1000 nM,9%
ZGPPISIDVPYQLLRKVIEIEKQEKEKQQAANNARLLDTI (C-terminal amide) [SEQ ID NO 374],1000 nM,11%
ZGPPISIDVPYHLLRKVIEIEKQEKEKQQAANNARLLDTI (C-terminal amide) [SEQ ID NO 376],1000 nM,8%
ZGPPISIDVPFQLLRKVIEIEKQEKEKQQAANNARLLDTI (C-terminal amide) [SEQ ID NO 382],1000 nM,8%
ZGPPISIDVPFQLLRKVIEIEKQEKEKQQAANNARLLARI (C-terminal amide) [SEQ ID NO 383],1000 nM,55%
ZGPPISIDVPLQLLRKVIEIEKQEKEKQQAANNARLLDTI (C-terminal amide) [SEQ ID NO 380],1000 nM,16%
ZGPPISIDVPLQLLRKVIEIEKQEKEKQQAANNARLLARI (C-terminal amide) [SEQ ID NO 381],1000 nM,27%
ZGPPISIDVPYYLLRKVIEIEKQEKEKQQAANNARLLARI (C-terminal amide) [SEQ ID NO 378],1000 nM,36%
DNPSLSIDVPLLLLRTLLELEKTQSQRERAEQNARIFARV-NH2 [SEQ ID NO 384],1000 nM,70.3%

# From patent US20030148958A1 (PROCTER AND GAMBLE, published 2003)
